Values quoted from earlier work, collected in article PMC3050111.
Like-named read-outs stand apart in the source and are kept apart here. One block for each substance: values may come before it.

Experiments:
[1] = molecular target: integrin αVβ3 (Homo sapiens) (UniProt P06756)
[2] = molecular target: integrin αVβ3 (Homo sapiens) (UniProt P06756); remark: listed apart in the source
[3] = molecular target: integrin αVβ3 (Homo sapiens) (UniProt P06756); remark: listed apart in the source

Substance: Tat (from UniProt P04326)
- Kd [1]: 32 nM

- Kd [2]: 27 nM
Substance: fibrinogen (from UniProt P02671)

- Kd [3]: 64 nM
Substance: vitronectin (from UniProt P04004)
